Measurements as given in patent US20130177981A1 (WISCONSIN ALUMNI RESEARCH FOUNDATION, published 2013).
Where two headings read alike, the source gives them in different places. [ ]: non-standard residue; d: D form. APC = trans-3-aminopyrrolidine-4-carboxylic acid; ACPC = trans-2-aminocyclopentanecarboxylic acid; β3hT = C[C@@H](O)[C@H](N)CC(=O)O; β3hE = N[C@@H](CCC(=O)O)CC(=O)O

B1: chimeric α+α/β foldamer 13 (peptide)
peptide: Ac-TTWEAWDRAIA[β3hE]YA[ACPC]RIE[ACPC]LI[APC]AAQ[β3hE]QQ[β3hE]KNE[ACPC]AL[APC]EL-NH2
modifications: not fully specified
notes: the difference must lie in β3-residues whose bold type is lost; also called compound 13; peptide 13
B2: chimeric CHR α/β-peptide 8 (peptide)
peptide: Ac-TTWEAWDRAIAEYA[ACPC]RIE[ACPC]LI[APC]AAQ[β3hE]QQ[β3hE]KNE[ACPC]AL[APC]EL-NH2
modifications: not fully specified
notes: Made from 7 by replacing two β3-hArg residues with APC

Legend:
gp41-5 [1] = molecular target: T1, gp41-5 (HIV); assay: competition FP; displacement of Flu-C38 from gp41-5
T1 construct: also called gp41-5 protein construct; five-helix bundle protein

gp41-5 [2] = molecular target: T1, gp41-5; assay: as above; remark: listed apart in the source
Experimental: Competition fluorescence polarization assays were conducted in black 96-well plates. […] A second stock plate was prepared containing serial dilutions of peptide inhibitors in DMSO. The peptide stock solutions were transferred to the assay plate (1 μL per well). […] All experimental conditions were carried out in duplicate, and each peptide was assayed in 2-3 independent experiments. Data analysis was carried out in GraphPad Prism. Raw mP data from each experiment were fit to a sigmoidal dose response and normalized to the resulting parameters for the top and bottom of the curve. All experiments included at least one compound showing complete inhibition at the highest concentrations tested. Normalized data from multiple independent runs of the each oligomer were combined and globally fit to an exact analytical expressions for FP competitive binding with Kᵢ as the only floating parameter.

Row | Binder | Ki (gp41-5 [1]) | Ki (gp41-5 [2])
1 | B1 | 0.8 nM | 
2 | Ac-[β3hT]TWE[ACPC]WD[APC]AIA[β3hE]YA[ACPC]RIE[ACPC]LI[APC]AAQEQQEKNEAALREL-NH2 (not fully specified, also called compound 15) [chimeric α+α/β foldamer 15] | 0.2 nM | 
3 | B2 |  | 0.3 nM
4 | Ac-TTWEAWD[APC]AIA[β3hE]YA[ACPC]RIE[ACPC]LI[APC]AAQ[β3hE]QQ[β3hE]KNE[ACPC]AL[APC]EL-NH2 (not fully specified, also called compound 12; peptide 12) [chimeric α+α/β foldamer 12] | 8 nM | 
5 | Ac-[β3hT]TWE[ACPC]WD[APC]AIA[β3hE]YAARIEALIRAAQ[β3hE]QQ[β3hE]KNE[ACPC]AL[APC]EL-NH2 (not fully specified, also called compound 14) [chimeric α+α/β foldamer 14] | 1.4 nM | 
